Results published in patent publication US20230399412A1 (NANJING IASO BIOTECHNOLOGY, published 2023).

T1: Biotinylated Human CD27 Ligand, HIS, Avitag (ACRO biosystem, CDL-H82Q9) (human, UniProt P32970 39-193, biotinylated (Avitag))
T1 construct: Bought reagent; also called Acro-CD70-his-Bio; CD70-his-Bio; not shown: His tag and Avitag
T1 sequence (looked up): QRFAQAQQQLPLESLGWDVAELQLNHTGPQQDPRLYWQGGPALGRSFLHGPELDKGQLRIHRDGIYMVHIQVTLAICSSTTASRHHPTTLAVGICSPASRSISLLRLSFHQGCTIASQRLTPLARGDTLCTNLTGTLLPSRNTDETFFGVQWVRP

T2: Biotinylated Human CD27 Ligand, Avitag, human Fc Tag (ACRO biosystem, TN7-H82F4) (human, UniProt P32970 39-193, biotinylated (Avitag))
T2 construct: Bought reagent; also called Acro-CD70-Fc-Bio; not shown: human Fc tag and Avitag
T2 sequence (looked up): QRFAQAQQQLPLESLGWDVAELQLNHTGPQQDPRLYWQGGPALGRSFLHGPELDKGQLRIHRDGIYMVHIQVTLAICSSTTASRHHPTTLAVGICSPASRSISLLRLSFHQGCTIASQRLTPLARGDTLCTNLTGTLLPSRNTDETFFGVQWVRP

T3: Human CD70/CD27 Ligand Protein (human FC Tag)-Biotin (Kactus, CD7-HM270) (human, UniProt P32970 39-193, biotinylated)
T3 construct: Bought reagent; also called Kactus-CD70-Fc-Bio; Katcus-CD70-Fc-Bio; not shown: human Fc tag
T3 sequence (looked up): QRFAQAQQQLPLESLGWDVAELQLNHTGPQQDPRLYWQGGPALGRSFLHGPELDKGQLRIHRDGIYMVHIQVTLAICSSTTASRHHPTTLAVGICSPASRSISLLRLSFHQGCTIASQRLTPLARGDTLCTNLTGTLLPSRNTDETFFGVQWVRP

T4: Human CD70/CD27 Ligand Protein-his-Trimer-Biotin (Kactus, CD7-HM271) (human, UniProt P32970 39-193, biotinylated)
T4 construct: Bought reagent, named a trimer; also called Kactus-CD70Trimer-his-Bio; Katcus-CD70 Trimer-His-Bio; not shown: His tag (and any trimerisation part)
T4 sequence (looked up): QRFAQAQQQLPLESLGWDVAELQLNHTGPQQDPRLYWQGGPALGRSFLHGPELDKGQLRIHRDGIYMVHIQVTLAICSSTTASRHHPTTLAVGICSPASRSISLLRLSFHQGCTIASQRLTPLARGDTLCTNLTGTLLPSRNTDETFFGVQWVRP

T5: Human CD70/CD27 Ligand Protein-his-Trimer (Kactus, CD7-HM271-1) (human, UniProt P32970 39-193)
T5 construct: Bought reagent, named a trimer; also called Kactus-CD70 Trimer-his; Kactus-CD70Trimer-his; not shown: His tag (and any trimerisation part)
T5 sequence (looked up): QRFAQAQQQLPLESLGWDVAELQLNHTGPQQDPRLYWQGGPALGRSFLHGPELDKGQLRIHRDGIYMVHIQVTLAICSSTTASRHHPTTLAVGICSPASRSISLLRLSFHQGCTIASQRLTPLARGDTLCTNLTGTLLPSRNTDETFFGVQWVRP

T6: Biotinylated Human Siglec-2/CD22 Protein, human Fc, Avitag (ACRO biosystem, SI2-H82F8) (human, UniProt P20273 20-687, biotinylated (Avitag))
T6 construct: Irrelevant control antigen; also called Acro-CD22-Bio; CD22-Fc-Bio; not shown: human Fc and Avitag
T6 sequence (looked up): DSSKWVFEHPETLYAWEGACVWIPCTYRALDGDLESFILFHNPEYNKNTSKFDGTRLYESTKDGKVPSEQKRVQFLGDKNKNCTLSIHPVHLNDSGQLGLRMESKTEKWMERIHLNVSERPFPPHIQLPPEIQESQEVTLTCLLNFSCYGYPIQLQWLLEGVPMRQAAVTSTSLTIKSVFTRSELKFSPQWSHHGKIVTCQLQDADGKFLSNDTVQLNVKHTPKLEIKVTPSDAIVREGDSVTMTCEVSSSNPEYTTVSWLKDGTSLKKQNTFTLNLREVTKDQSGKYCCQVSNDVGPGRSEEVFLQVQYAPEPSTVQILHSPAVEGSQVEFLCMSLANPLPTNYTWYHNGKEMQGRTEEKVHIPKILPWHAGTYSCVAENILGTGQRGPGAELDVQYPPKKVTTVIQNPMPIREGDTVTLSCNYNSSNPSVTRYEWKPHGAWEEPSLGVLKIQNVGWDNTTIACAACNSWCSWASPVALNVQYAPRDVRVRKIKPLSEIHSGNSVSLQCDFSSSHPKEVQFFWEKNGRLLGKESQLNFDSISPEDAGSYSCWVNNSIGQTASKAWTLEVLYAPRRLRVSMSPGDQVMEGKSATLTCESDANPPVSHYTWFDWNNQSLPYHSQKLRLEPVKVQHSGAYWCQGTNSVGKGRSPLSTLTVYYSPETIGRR

T7: CD70 on the cell surface of CD70-positive cell lines (UniProt P32970 1-193, limits assumed)
T7 construct: whole, on cells; One molecule for all cell lines; the cell line is named under assay; also called natural CD70 on the cell surface; CD70 antigen on Raji, U266, THP-1, RS4:11, REH, Molm-13 cells
T7 sequence (looked up): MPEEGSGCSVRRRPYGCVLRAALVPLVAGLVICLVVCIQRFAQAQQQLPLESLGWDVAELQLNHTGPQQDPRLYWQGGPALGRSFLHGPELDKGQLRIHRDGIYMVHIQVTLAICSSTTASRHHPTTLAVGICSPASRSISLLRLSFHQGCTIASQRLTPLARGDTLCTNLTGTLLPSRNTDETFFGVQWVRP


Columns and labels:
[1] = target: T1, Biotinylated Human CD27 Ligand, HIS, …; assay: phage ELISA
[2] = target: T2, Biotinylated Human CD27 Ligand, Avitag, …; assay: phage ELISA
[3] = target: T3, Human CD70/CD27 Ligand Protein (human …); assay: phage ELISA
[4] = target: T4, Human CD70/CD27 Ligand …; assay: phage ELISA
[5] = target: T5, Human CD70/CD27 Ligand …; assay: phage ELISA
[6] = target: T6, Biotinylated Human Siglec-2/CD22 …; assay: phage ELISA
[7] = target: T7, CD70 on the cell surface of …; assay: phage FACS on CD70-positive cell lines (Raji, U266)

Binder | binding result [1] | binding result [2] | binding result [3] | binding result [4] | binding result [5] | binding result [6] | binding result [7]
phage monoclonal antibody clone #20 (VHH, single-domain antibody (heavy chain variable region alone); also called VHH20; VHH 20) VHH: EVQLLESGGGLVQPGGSLRLSCAASGFTFSSYAMGWVRQAPGKGLEWVSSISGYGEETYYADSVKGRFTISRDNSKNTLYLQMNSLRAEDTAVYYCARFYYRYWKEFDYWGQGTLVTVSS | binds | binds | binds | binds | binds | no binding | binds
phage monoclonal antibody clone #6 (scFv, also called scFv 06; Scfv06) scFv: QAVLTQPPSASATPGQRVSISCSGSSSNIGRNTVNWYQHLPGTAPKLLIYSNDHRPSGVPDRFSGSQSGTSASLAISGLQSEDEADYYCASWDDSLTGWVFGGGTKVTVLGSRGGGGSGGGGSGGGGSLEMAQVQLVQSGAEVKKAGSSLKVSCKANGGSFTNYLINWVRQAPGQGLEWMGGIIPVYGTPIYSQKFQGRVTFTADEPTRTAYMELSSLTFEDTAVYYCVREDEGYGDLYLAYWGQGTLVTVSS | binds | binds | binds | binds | binds | no binding | binds
phage monoclonal antibody clone #21 (VHH, single-domain antibody (heavy chain variable region alone); also called VHH21; VHH 21) VHH: EVQLLESGGGLVQPGGSLRLSCAASGFTFSNYAMGWVRQAPGKGLEWVSSITGLGGNMYYADSVKGRFTISRDNSKNTLYLQMNSLRAEDTAVYYCARMYYSQGVNNYSYPSTDIWGQGTLVTVSS | binds | binds | binds | binds | binds | no binding | binds
phage monoclonal antibody clone #9 (VHH, single-domain antibody (heavy chain variable region alone); also called VHH 09; 09 antibody) VHH: EVQLLESGGGLVQPGGSLRLSCAASGFTFNIDAMGWVRQAPGKGLEWVSSISSSGGTTYYADSVKGRFTISRDNSKNTLYLQMNSLRAEDTAVYYCARSRYSVPDGRGSYDVWGQGTLVTVSS | binds | binds | binds | binds | binds | no binding | binds
phage monoclonal antibody clone #13 (VHH, single-domain antibody (heavy chain variable region alone); also called VHH13; VHH 13) VHH: EVQLLESGGGLVQPGGSLRLSCAASGFTFSSEAMGWVRQAPGKGLEWVSSINGSGRNTYYADSVKGRFTISRDNSKNTLYLQMNSLRAEDTAVYYCARKHGEYYDSGYDVWGQGTLVTVSS |  |  |  |  |  | no binding | 
